# From patent publication US20250277044A1 (BEIJING HANMI PHARMACEUTICAL, published 2025)
# T1: recombinant mouse 4-1BB (mouse, UniProt P20334 24-187)
# T1 construct: Bought protein, coated on ELISA plate
# T1 sequence (looked up): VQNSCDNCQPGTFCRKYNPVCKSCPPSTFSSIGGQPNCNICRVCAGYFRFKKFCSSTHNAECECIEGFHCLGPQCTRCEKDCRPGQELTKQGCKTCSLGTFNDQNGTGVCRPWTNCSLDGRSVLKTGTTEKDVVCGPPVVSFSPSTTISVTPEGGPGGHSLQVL
# T2: recombinant human CD80 (human, UniProt P33681 35-242)
# T2 construct: also called B7 family member
# T2 sequence (looked up): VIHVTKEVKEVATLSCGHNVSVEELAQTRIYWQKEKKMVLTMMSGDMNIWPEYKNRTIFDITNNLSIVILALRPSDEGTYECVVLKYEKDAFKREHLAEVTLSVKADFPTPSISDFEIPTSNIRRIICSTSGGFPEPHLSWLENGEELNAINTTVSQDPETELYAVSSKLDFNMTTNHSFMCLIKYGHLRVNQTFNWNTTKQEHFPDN
# T3: recombinant human CD86 (human, UniProt P42081 24-245, limits assumed)
# T3 construct: also called B7 family member
# T3 sequence (looked up): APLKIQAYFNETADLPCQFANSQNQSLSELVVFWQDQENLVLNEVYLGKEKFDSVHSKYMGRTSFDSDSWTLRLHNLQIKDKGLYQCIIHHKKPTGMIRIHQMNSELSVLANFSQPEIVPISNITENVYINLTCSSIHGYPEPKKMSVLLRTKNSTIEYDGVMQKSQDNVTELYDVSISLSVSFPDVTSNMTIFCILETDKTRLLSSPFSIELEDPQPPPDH
# T4: recombinant human PD-L2 (human, UniProt Q9BQ51 20-220)
# T4 construct: also called B7 family member
# T4 sequence (looked up): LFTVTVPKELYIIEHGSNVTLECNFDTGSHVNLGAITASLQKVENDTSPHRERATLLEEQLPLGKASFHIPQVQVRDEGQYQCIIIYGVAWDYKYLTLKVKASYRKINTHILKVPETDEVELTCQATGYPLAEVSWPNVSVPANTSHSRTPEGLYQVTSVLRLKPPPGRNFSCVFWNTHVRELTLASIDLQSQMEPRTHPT
# T5: recombinant human B7-H2 (human, UniProt O75144 19-256, limits assumed)
# T5 construct: also called B7 family member
# T5 sequence (looked up): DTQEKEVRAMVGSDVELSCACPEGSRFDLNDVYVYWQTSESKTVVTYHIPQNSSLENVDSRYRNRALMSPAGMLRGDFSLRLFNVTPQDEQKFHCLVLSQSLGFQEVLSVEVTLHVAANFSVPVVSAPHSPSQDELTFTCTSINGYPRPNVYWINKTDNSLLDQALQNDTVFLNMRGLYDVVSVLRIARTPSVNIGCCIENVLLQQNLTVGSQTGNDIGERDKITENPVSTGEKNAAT
# T6: recombinant human LAG-3 (human, UniProt P18627 23-450)
# T6 sequence (looked up): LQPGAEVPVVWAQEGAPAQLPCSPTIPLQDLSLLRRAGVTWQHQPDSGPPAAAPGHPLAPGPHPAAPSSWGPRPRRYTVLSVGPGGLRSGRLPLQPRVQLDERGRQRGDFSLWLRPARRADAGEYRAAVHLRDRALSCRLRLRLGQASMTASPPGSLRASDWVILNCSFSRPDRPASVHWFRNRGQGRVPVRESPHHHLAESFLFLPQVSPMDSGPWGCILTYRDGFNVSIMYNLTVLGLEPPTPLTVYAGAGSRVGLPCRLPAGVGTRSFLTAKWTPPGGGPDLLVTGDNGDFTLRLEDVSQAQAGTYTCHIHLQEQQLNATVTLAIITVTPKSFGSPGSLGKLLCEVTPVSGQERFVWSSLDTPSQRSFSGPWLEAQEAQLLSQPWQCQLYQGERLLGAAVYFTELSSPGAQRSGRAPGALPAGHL
# T7: recombinant human OX40 (human, UniProt P43489 29-216)
# T7 sequence (looked up): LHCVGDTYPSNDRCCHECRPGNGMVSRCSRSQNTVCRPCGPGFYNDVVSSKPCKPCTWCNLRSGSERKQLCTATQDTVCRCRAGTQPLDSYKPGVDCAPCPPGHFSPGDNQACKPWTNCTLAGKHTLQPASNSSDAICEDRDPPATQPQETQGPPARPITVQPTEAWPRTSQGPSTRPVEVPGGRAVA
# T8: recombinant human ICOS (human, UniProt Q9Y6W8 21-141)
# T8 construct: also called CD28 family member
# T8 sequence (looked up): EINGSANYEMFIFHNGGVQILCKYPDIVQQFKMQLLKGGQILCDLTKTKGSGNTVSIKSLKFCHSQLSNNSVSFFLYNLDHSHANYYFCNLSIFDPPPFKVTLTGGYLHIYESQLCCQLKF
# Legend:
# recombinant mouse 4-1BB = target: T1, recombinant mouse 4-1BB; assay: ELISA, coated antigen 1 µg/mL
# recombinant human CD80 = target: T2, recombinant human CD80; assay: ELISA, coated antigen 1 µg/mL
# recombinant human CD86 = target: T3, recombinant human CD86; assay: ELISA, coated antigen 1 µg/mL
# recombinant human PD-L2 = target: T4, recombinant human PD-L2; assay: ELISA, coated antigen 1 µg/mL
# recombinant human B7-H2 = target: T5, recombinant human B7-H2; assay: ELISA, coated antigen 1 µg/mL
# recombinant human CTLA4 = recombinant human CTLA4 (human, UniProt P16410 36-162); assay: ELISA, coated antigen 1 µg/mL
# recombinant human CTLA4, sequence (P16410 36-162 limits assumed): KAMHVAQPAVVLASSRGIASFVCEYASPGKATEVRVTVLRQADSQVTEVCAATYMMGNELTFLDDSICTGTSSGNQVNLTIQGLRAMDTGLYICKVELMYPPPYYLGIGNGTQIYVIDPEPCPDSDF
# recombinant human PDI = target: T9, recombinant human PDI (human, UniProt Q15116 25-167); assay: ELISA, coated antigen 1 µg/mL
# T9 construct: also called PD1 (printed 'PDI'); CD28 family member
# T9 sequence (Q15116 25-167 limits assumed): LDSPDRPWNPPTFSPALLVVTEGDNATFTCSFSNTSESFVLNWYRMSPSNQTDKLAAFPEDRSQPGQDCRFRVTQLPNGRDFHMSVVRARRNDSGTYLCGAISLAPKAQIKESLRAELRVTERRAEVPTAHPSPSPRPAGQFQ
# recombinant human LAG-3 = target: T6, recombinant human LAG-3; assay: ELISA, coated antigen 1 µg/mL
# recombinant human TIM-3 = recombinant human TIM-3 (human, UniProt Q8TDQ0 22-200); assay: ELISA, coated antigen 1 µg/mL
# recombinant human BTLA = target: T10, recombinant human BTLA (human, UniProt Q7Z6A9 31-157, limits assumed); assay: ELISA, coated antigen 1 µg/mL
# T10 construct: also called CD28 family member
# recombinant human CD28 = target: T11, recombinant human CD28 (human, UniProt P10747 19-152); assay: ELISA, coated antigen 1 µg/mL
# T11 construct: also called CD28 family member
# recombinant human OX40 = target: T7, recombinant human OX40; assay: ELISA, coated antigen 1 µg/mL
# recombinant human CD27 = recombinant human CD27 (human, UniProt P26842 20-192); assay: ELISA, coated antigen 1 µg/mL
# recombinant human CD27, sequence (P26842 20-192 limits assumed): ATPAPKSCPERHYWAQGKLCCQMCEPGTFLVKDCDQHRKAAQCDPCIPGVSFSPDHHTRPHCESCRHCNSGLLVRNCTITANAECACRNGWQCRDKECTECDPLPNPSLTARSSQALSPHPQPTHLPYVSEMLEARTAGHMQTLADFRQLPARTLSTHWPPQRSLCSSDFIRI
# recombinant human ICOS = target: T8, recombinant human ICOS; assay: ELISA, coated antigen 1 µg/mL
# [1] = target: T12, recombinant human 4-1BB (Sino Biological Inc., catalog number 10041-H08H) (human, UniProt Q07011 24-186); assay: ELISA, coated recombinant human 4-1BB, steps of Example 4
# T12 construct: Bought protein coated on ELISA plates; treated as the same molecule; also called recombinant human 4-1BB-His protein; CD137
# T12 sequence (Q07011 24-186 limits assumed): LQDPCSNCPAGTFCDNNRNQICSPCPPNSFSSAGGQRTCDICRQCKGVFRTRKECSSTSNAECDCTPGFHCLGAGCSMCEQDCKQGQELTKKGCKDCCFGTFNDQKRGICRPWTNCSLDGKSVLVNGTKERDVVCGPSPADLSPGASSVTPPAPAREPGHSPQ
binding result (recombinant mouse 4-1BB),binding result (recombinant human CD80),binding result (recombinant human CD86),binding result (recombinant human PD-L2),binding result (recombinant human B7-H2),binding result (recombinant human CTLA4),binding result (recombinant human PDI),binding result (recombinant human LAG-3),binding result (recombinant human TIM-3),binding result (recombinant human BTLA),binding result (recombinant human CD28),binding result (recombinant human OX40),binding result (recombinant human CD27),binding result (recombinant human ICOS),binding result [1],Binder
no binding,no binding,no binding,no binding,no binding,no binding,no binding,no binding,no binding,no binding,no binding,no binding,no binding,no binding,,"chimeric anti-human 4-1BB monoclonal antibody mAb-33-83 (antibody, human IgG4 S228P, kappa, V domains shown, expressed in ExpiCHO cells; also called Chimeric mAbs) VH: QVQLQQPGAELVRPGASMKLSCKASGYTFTSYWINWVKQRPGQGLEWIGNIYPSDSYTNYNQKFKDKATLTVDKSSSTAYMQLSSPTSEDSAVYYCTRLYYGSSPFDYWGQGTTLTVSS VL: DIQMTQTTSSLSASLGDRVTISCRASQDISNYLNWYQQKPDGTVKLLIYHTSRLHSGVPPRFSGSGSGTNYSLTISNLEQEDIATYFCQQGHTLPRTFGGGTKLEIKR"
,,,,,,,,,,,,,,binds,"humanized anti-human 4-1BB monoclonal antibody BH3145b (antibody, human IgG4 S228P, kappa, V domains shown, also called z0) VH: QVQLVQSGAEVKKPGSSVKVSCKASGYTFTSYWINWVRQAPGQGLEWMGNIYPSDSYTNYNQKFKDRVTITADKSTSTAYMELSSLRSEDTAVYYCARLYYGSSPFDYWGQGTTVTVSS VL: DIQMTQSPSSLSASVGDRVTITCRASQDISNYLNWYQQKPGKVPKLLIYHTSRLHSGVPSRFSGSGSGTDFTLTISSLQPEDVATYYCQQGHTLPRTFGGGTKVEIKR"
